According to the DeepSol protein solubility set:

Test: soluble on expression in E. coli; label from the status in PepcDB or PDB records

Sequence	soluble on expression in E. coli
MGSDKIHHHHHHVNVPTEFDINVLRADFDKTRLPRSRAQQMPGKMYTSSEVAALEKKRIFMDTWLCAGREEEIANPGDYMTREIASEPFVLSRDKEGKVHAFLNMCLHRGVPVAEGSGNARGFSCPYHAWYYDLQGTLLAAPLMEQSEANLKNCRLKPMRLALWRGWIFVSFNPDAMPFETFIAPFEENLWWFKSDECRLSERVVLQIDCNWKLLVENLIDIYHVPVLHKASFGGFLKSDKEKLSFNLLPRGGWYYEQKARPHSKSGQQLFPTLPWLEGMDSGTSMKAGIFPNLNLSLRFDSLRMWQVWPTSTGKSELHLYSLFMPAAFEDPDFQKHYEEYKSFLLGAIVNEDGPMVVKLQQAMGSEFYAPGPLSHLEGAVHHLMNYYLDVVSGEDRND	not soluble
MDTTPEPFTGKMGSYILIAPDGDAAMIDSGPKTSWERVREELQSMGVRLRYVILTHIHLDHASAAGSIVRSLDTVEAVYVHPRGARHMADPERLWQASKQFLGDYADFFGKPEPVPEGKIVVPEDGEVLELPGGVKLHVIYTPGHASHHMSFYLPQEGVMFTGDSAGVSLKDDDGTLVEFPTTPPPFKPVEYINSLDAMARFKPEKLAFAHYGMRSGGMEYLRWHREDILRWVREAVEYVSRGGGDAEELMRLLADKLENAGKAYRARNPIISEFMYRGTVLGLMDTAVRGEWKRLHL	soluble
MKTLLLLIPLVLTACGTLTGIPAHGGGKRFAVEQELVAASSRAAVKEMDLSALKGRKAALYVSVMGDQGSGNISGGRYSIDALIRGGYHNNPDSATRYSYPAYDTTATTKSDALSGVTTSTSLLNAPAAALTKNNGRKGERSAGLSVNGTGDYRNETLLANPRDVSFLTNLIQTVFYLRGIEVVPPEYADTDVFVTVDVFGTVRSRTELHLYNAETLKAQTKLEYFAVDRDSRKLLIAPKTAAYESQYQEQYALWMGPYSVGKTVKASDRLMVDFSDITPYGDTTAQNRPDFKQNNGKNPDVGNEVIRRRKGG	not soluble
MAHHHHHHMSSIKINKDESKRVHIWIKSAIGTPNRRQFKHKNIMYPYFRMYKSPYRARDSRTRQAFWPCVDKYPWHTHQKRWVDIEQLNLKFFSEFTNKDPSRKNLFETCHTLPFNGINCLFWNPIYLNSHKFFLKKNKKDANRGEDNNMEENDDVKENTIEGNDDVKEHAIEGYTNNNVNNHNDIINQYDENKKVIKINDFHYIVDKDVKNNTYFYLKYIKYSMRPFRGKLIGDIYLNQTKIRHNISAKGFVNGEWKYSYPHININKKIEHISLNNNLTSNDIYSNNINNLVIVDKYTYRPPLPKSYIFQKDIL	not soluble
MGSSRKTANAATNNFPCHGSCPEPSFQIQVIARGVRRRRSPIDQPSMEADVDTDIIDHLKTLHTSEIDARNGYEEALEDAEGKGLTSLFRDMIALHHGNAEELAGMLINAGETADDSGSFMSVVHRTIMSVRSLFDGLDGSVLPGLIDGEKRNLSKYDDALKAIAGIPSISSTLSAQRAKISEKIALMEQQKAAYEAAT	not soluble
MGSDKIHHHHHHMQLHLTDDRFNTDPYWTERIKSTFACPPKEVVSMFDQNGYDLTKLEQLYAVANGAETTKHRNSSHITLRQDWFTADDTEYGPHINHAYMFERKGYSGDALAQLEAWSYYRPHFHKLIAMRPKWGLDFSIDYCDREGNVFELLHWEYDGFDHNEVADKKEKMDEFLVNQDWDERARTMLERKNEWHKLGFFEQSEWKTEFFGIEKERFKMVLWK	not soluble
MENGEAKQSVPLLTPYKMGRFNLSHRVVLAPLTRQRSYGNVPQPHAAIYYSQRTTPGGFLITEATGVSDTAQGYQDTPGIWTKEHVEAWKPIVDAVHAKGGIFFCQIWHVGRVSNSGFQPNGKAPISCSDKPLMPQIRSNGIDEALFTPPRRLGIEEIPGIVNDFRLAARNAMEAGFDGVEIHGANGYLIDQFMKDTVNDRTDEYGGSLQNRCKFPLEIVDAVAKEIGPDRVGIRLSPFADYMESGDTNPGALGLYMAESLNKYGILYCHVIEARMKTMGEVHACPHTLMPMRKAFKGTFISAGGFTREDGNEAVSKGRTDLVAYGRWFLANPDLPKRFQVDAPLNKYDRPTFYTSDPVVGYTDYPFLESTA	soluble
MSSERACMLCGIVQTTNEFNRDGCPNCQGIFEEAGVSTMECTSPSFEGLVGMCKPTKSWVAKWLSVDHSIAGMYAIKVDGRLPAEVVELLPHYKPRDGSGSATIWGVRCRPGKEKELIRKLLKKKFNLDRAMGKKKLKILSIFQRDNYTGRIYIEAPKQSVIEKFCNGVPDIYISQKLLIPVQELPLLLKPNLEHHHHHH	soluble
